Laboratory results taken from patent US20250320252A1 (Scripps Research, published 2025).
Read-outs that look alike come from different tables or passages of the source. Bridge positions count the residues as written; N and C are the ends. Square brackets hold non-standard residues; d marks the D form. Ends that are not written are not given here. C20L5A = not defined here; L5A(S) = not defined here; Aib = CC(C)(N)C(=O)O

T1: human GIP receptor (human, UniProt P48546 22-466)
T1 sequence (looked up): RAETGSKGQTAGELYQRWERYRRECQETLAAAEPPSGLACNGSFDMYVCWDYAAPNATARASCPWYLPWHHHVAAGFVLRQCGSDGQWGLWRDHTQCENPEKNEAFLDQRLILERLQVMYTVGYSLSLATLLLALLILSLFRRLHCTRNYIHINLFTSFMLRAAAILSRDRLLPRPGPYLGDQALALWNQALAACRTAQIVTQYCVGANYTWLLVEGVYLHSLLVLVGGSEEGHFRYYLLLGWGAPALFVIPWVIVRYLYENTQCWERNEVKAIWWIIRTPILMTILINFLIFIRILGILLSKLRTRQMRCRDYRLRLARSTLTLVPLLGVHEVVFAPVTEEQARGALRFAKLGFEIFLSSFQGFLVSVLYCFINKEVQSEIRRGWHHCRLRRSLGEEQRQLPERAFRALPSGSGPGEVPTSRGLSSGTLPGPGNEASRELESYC

T2: dog GLP1R (dog, UniProt A0A8I3NUR9 25-464)
T2 sequence: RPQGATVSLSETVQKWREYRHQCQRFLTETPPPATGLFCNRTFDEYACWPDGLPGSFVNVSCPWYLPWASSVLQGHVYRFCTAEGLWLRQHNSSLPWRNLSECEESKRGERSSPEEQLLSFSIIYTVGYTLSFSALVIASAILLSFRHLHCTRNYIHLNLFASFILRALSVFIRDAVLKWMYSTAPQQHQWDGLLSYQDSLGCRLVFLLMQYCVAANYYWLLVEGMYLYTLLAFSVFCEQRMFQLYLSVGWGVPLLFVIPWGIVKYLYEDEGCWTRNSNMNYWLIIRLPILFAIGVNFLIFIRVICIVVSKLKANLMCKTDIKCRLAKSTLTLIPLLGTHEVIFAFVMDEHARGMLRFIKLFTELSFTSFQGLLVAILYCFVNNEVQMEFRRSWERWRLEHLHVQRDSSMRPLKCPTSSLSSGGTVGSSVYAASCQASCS

T3: mouse GIPR (mouse, UniProt Q0P543 19-460)
T3 sequence (looked up): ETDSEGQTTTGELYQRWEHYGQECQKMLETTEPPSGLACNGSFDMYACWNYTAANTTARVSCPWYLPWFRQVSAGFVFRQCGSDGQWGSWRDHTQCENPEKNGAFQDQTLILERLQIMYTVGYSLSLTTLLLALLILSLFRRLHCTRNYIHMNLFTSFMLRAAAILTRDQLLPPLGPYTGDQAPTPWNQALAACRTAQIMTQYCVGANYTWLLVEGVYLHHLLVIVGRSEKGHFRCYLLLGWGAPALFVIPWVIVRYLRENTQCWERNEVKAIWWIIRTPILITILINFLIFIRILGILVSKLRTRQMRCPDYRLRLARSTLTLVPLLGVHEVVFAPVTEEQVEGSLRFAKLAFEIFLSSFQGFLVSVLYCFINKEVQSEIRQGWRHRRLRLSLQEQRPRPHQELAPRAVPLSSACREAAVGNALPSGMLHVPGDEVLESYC

T4: mouse GLP1R (mouse, UniProt O35659 22-463)
T4 sequence (looked up): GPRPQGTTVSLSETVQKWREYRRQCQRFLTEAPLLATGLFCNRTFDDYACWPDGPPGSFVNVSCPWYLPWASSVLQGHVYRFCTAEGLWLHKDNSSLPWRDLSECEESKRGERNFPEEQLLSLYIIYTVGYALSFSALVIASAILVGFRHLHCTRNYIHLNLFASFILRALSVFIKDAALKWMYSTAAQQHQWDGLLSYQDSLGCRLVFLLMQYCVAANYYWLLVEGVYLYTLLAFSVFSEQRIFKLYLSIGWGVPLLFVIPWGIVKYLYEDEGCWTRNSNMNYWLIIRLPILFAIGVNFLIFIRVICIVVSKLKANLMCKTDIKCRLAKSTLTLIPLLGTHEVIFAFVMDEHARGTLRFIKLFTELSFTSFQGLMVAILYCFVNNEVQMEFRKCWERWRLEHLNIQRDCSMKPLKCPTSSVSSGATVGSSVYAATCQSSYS

T5: cynomolgus monkey GIPR (cynomolgus monkey, UniProt A0A2K5VD75 22-466)
T5 sequence: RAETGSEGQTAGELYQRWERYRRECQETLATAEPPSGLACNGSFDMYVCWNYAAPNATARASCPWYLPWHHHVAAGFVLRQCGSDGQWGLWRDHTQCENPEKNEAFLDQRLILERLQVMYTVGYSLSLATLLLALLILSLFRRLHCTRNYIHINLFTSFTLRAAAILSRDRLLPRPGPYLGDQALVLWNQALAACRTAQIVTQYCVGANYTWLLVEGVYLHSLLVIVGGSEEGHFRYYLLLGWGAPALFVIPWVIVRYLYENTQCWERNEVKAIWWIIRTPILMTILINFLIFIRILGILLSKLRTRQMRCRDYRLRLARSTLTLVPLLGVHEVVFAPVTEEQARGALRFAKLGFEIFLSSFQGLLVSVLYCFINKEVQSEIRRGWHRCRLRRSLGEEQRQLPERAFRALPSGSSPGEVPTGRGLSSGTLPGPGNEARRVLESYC


Tests used:
Assay in all cases: cell-based or functional assay
[1] = target: T1, human GIP receptor
[2] = target: cynomolgus monkey GLP1R (cynomolgus monkey, UniProt F8V479 24-463)
[3] = target: T2, dog GLP1R
[4] = target: T3, mouse GIPR
[5] = target: dog GIPR (dog)
[6] = target: T6, human GLP-1 receptor (human, UniProt P43220 24-463)
[7] = target: T1, human GIP receptor; remark: listed apart in the source
[8] = target: T6, human GLP-1 receptor; remark: listed apart in the source
[9] = target: T1, human GIP receptor; remark: listed apart in the source
[10] = target: T6, human GLP-1 receptor; remark: listed apart in the source
[11] = target: T1, human GIP receptor; remark: listed apart in the source
[12] = target: T6, human GLP-1 receptor; remark: listed apart in the source
[13] = target: T1, human GIP receptor; remark: listed apart in the source
[14] = target: T4, mouse GLP1R
[15] = target: T5, cynomolgus monkey GIPR

Binder	In Vitro Potency GLP1R EC50 [nM], Cyno [2]	In Vitro Potency GLP1R EC50 [nM], Dog [3]	In Vitro Potency GIPR EC50 [nM], Mouse [4]	In Vitro Potency GIPR EC50 [nM], Dog [5]	EC50 of receptor-mediated cAMP synthesis, GIPR (nM), 02/19 [13]	EC50 of receptor-mediated cAMP synthesis, GIPR (nM), 03/25 [13]	EC50 of receptor-mediated cAMP synthesis, GIPR (nM), 03/26 [13]	EC50 of receptor-mediated cAMP synthesis, GIPR (nM), average [13]	In Vitro Potency GIPR EC50 [nM], Cyno [15]	other results
Y[Aib]EGTFTSDYSIYLDKCAA[Aib]EFVCWLIAGGPSSGAPPPS-NH2 (linker 17-24 via L5A(S); not fully specified; reading uncertain) [mCMZ371 (C(17-24)-L5A(S))]	0.11 nM	1.34 nM	0.27 nM	0.47 nM						In Vitro Potency GIPR EC50 [nM], 10% FBS [1]: 0.04 nM
Y[Aib]EGTFTSDYSIYKDKQAA[Aib]KFVNWLLAGGPSSGAPPPS-NH2 (bridge 14-21; not fully specified (bridges); also: K4 staple carries PEG-fatty acid) [mCMD307 (2050-K4)]					0.04 nM	0.01 nM	0.01 nM	0.02 nM		EC50 [nM] of receptor-mediated cAMP synthesis [6]: 0.01 nM; EC50 [nM] of receptor-mediated cAMP synthesis [7]: 0.02 nM; EC50 [nM] of receptor-mediated cAMP synthesis [8]: 0.03 nM; EC50 [nM] of receptor-mediated cAMP synthesis [9]: 0.01 nM; EC50 [nM] of receptor-mediated cAMP synthesis [10]: 0.03 nM; EC50 [nM] of receptor-mediated cAMP synthesis [11]: 0.01 nM; EC50 of receptor-mediated cAMP synthesis, GLP1R (nM), 02/19 [12]: 0.01 nM; EC50 of receptor-mediated cAMP synthesis, GLP1R (nM), 3/25 [12]: 0.01 nM; EC50 of receptor-mediated cAMP synthesis, GLP1R (nM), 03/26 [12]: 0.01 nM; EC50 of receptor-mediated cAMP synthesis, GLP1R (nM), average [12]: 0.01 nM
Y[Aib]EGTFTSDYSIYLDKCAA[Aib]EFVCWLIAGGPSSGAPPPS-NH2 (linker 17-24 via C20L5A; not fully specified; reading uncertain) [mCMV268 (27I, C(17-24)-C20L5A)]	0.22 nM	1.48 nM	0.26 nM		0.05 nM	0.04 nM	0.03 nM	0.04 nM	0.16 nM	In Vitro Potency GLP1R EC50 [nM], Mouse [14]: 0.26 nM
YAEGTFISDYSIAMDKIHQQDFVNWLLAQKGKKNDWKHNITQ-NH2 (ligand) [wild-type human GIP]				0.7 nM					0.69 nM	
